B1: Sirtuin (silent mating type information regulation 2 homolog) 1 (protein)
chain: MADEAALALQPGGSPSAAGADREAASSPAGEPLRKRPRRDGPGLERSPGEPGGAAPEREVPAAARGCPGAAAAALWREAEAEAAAAGGEQEAQATAAAGEGDNGPGLQGPSREPPLADNLYDEDDDDEGEEEEEAAAAAIGYRDNLLFGDEIITNGFHSCESDEEDRASHASSSDWTPRPRIGPYTFVQQHLMIGTDPRTILKDLLPETIPPPELDDMTLWQIVINILSEPPKRKKRKDINTIEDAVKLLQECKKIIVLTGAGVSVSCGIPDFRSRDGIYARLAVDFPDLPDPQAMFDIEYFRKDPRPFFKFAKEIYPGQFQPSLCHKFIALSDKEGKLLRNYTQNIDTLEQVAGIQRIIQCHGSFATASCLICKYKVDCEAVRGDIFNQVVPRCPRCPADEPLAIMKPEIVFFGENLPEQFHRAMKYDKDEVDLLIVIGSSLKVRPVALIPSSIPHEVPQILINREPLPHLHFDVELLGDCDVIINELCHRLGGEYAKLCCNPVKLSEITEKPPRTQKELAYLSELPPTPLHVSEDSSSPERTSPPDSSVIVTLLDQAAKSNDDLDVSESKGCMEEKPQEVQTSRNVESIAEQMENPDLKNVGSSTGEKNERTSVAGTVRKCWPNRVAKEQISRRLDGNQYLFLPPNRYIFHGAEVYSDSEDDVLSSSSCGSNSDSGTCQSPSLEEPMEDESEIEEFYNGLEDEPDVPERAGGAGFGTDGDDQEAINEAISVKQEVTDMNYPSNKS
Recombinant PCSK9
  deacetylation in vitro (SDS-PAGE, blots for acetyl-lysine and PCSK9): PCSK9 is deacetylated by SIRT1 in vitro
acetyl-PCSK9-AMC peptide
  increase in fluorescence caused by deacetylation of fluorogenic PCSK9 peptide: SIRT1 deacetylates fluorogenic PCSK9 peptide
